Test results from patent US9587033.

B1: full length Tnk1 (72 kDa) (protein)
chain: MLPEAGSLWLLKLLRDIQLAQFYWPILEELNVTRPEHFDFVKPEDLDGIGMGRPAQRRLSEALKRLRSGPKSKNWVYKILGGFAPEHKEPTLPSDSPRHLPEPEGGLKCLIPEGAVCRGELLGSGCFGVVHRGLWTLPSGKSVPVAVKSLRVGPEGPMGTELGDFLREVSVMMNLEHPHVLRLHGLVLGQPLQMVMELAPLGSLHARLTAPAPTPPLLVALLCLFLRQLAGAMAYLGARGLVHRDLATRNLLLASPRTIKVADFGLVRPLGGARGRYVMGGPRPIPYAWCAPESLRHGAFSSASDVWMFGVTLWEMFSGGEEPWAGVPPYLILQRLEDRARLPRPPLCSRALYSLALRCWAPHPADRPSFSHLEGLLQEAGPSEACCVRDVTEPGALRMETGDPITVIEGSSSFHSPDSTIWKGQNGRTFKVGSFPASAVTLADAGGLPATRPVHRGTPARGDQHPGSIDGDRKKANLWDAPPARGQRRNMPLERMKGISRSLESVLSLGPRPTGGGSSPPEIRQARAVPQGPPGLPPRPPLSSSSPQPSQPSRERLPWPKRKPPHNHPMGMPGARKAAALSGGLLSDPELQRKIMEVELSVHGVTHQECQTALGATGGDVVSAIRNLKVDQLFHLSSRSRADCWRILEHYQWDLSAASRYVLARP

Tests used:
Grb2 = Grb2 (UniProt P62993)

Chain of Grb2, P62993 (P62993 whole entry, looked up, the tested form may be a part): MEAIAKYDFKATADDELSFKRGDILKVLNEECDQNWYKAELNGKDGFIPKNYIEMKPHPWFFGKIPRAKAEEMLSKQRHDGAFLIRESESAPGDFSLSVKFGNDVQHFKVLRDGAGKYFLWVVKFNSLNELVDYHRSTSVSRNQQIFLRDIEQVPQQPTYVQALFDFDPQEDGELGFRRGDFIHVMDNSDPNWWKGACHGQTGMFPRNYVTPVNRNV

Molecule	in vitro PTK activity assay (Y-phosphorylation of Grb2) (Grb2)	in vitro PTK activity assay (Y-phosphorylation of Grb2) (Grb2, P62993)
60 kDa truncated Tnk1-C17ORF61 fusion protein (tTnk1)	The t-Tnk1 showed none or weak Y-phosphorylation of Grb2	
B1		Tnk1 from T47D or K562 Y-phosphorylated Grb2
